Results as given in publication PMC9747964 (Nature Communications, 2022).
Several values for one entry are separate records, joined by “and”; a condition that tells them apart may be missing. Equal entries are not always repeated. Values belong to the molecule of their own block, whether it stands above or below them.

Key:
[1] = biological target: ComEAGs-OD (oligomerization domain of ComEAGs alone, codons 60-122) (Geobacillus stearothermophilus (ATCC 7953)); assay: AUC; sedimentation velocity, ComEAGs-OD at 12.7 μM, 37 krpm, 20 °C, 10 mM Tris pH 8, 100 mM KCl
[2] = biological target: ComEAGs (ComEA from Geobacillus stearothermophilus, codons 60-207) (Geobacillus stearothermophilus (ATCC 7953)); assay: AUC; sedimentation velocity, ComEAGs at 157 μM, 20 °C, 10 mM Tris pH 8, 100 mM KCl, 60 krpm
[3] = biological target: ComEAGs (ComEA from Geobacillus stearothermophilus, codons 60-207) (Geobacillus stearothermophilus (ATCC 7953)); assay: AUC; sedimentation velocity, ComEAGs at 31.3 μM (280 nm), fitted to a discrete monomer-dimer equilibrium model (genetic algorithm Monte Carlo); dimer to monomers; apparent; 20 °C, 10 mM Tris pH 8, 100 mM KCl
ComEAGs wild-type [4] = biological target: T1, ComEAGs wild-type (Geobacillus stearothermophilus (ATCC …, UniProt A0A0K9HI54 60-207)); assay: EMSA; 0.5 uM DNA, 1 mM MgCl2; cooperative; MW-AUC: 10 mM Tris pH 8, 100 mM KCl, 20 C; EMSA: 10 mM Tris pH 8, 100 mM KCl, 2.5% glycerol, 0.5 mM EDTA, 1 mM MgCl2, room temperature 15 min, 8% native gel in; conditions: protein: recombinant; blunt
T1 sequence: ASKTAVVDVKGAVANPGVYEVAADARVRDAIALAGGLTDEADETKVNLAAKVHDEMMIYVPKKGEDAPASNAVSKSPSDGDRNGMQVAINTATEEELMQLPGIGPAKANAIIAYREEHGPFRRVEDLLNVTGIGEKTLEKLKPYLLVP

[5] = biological target: the molecule itself; assay: AUC; sedimentation velocity of 31.3 uM ComEAGs, measured at 280 nm, 60 krpm, 20 °C, 10 mM Tris pH 8, 100 mM KCl; fitted to a discrete monomer-dimer reversibly self-associating model by genetic algorithm Monte Carlo analysis (96 iterations); dimer to monomers
[6] = biological target: the molecule itself; assay: AUC; sedimentation velocity of ComEAGs-OD at 196 uM, 37 krpm, 20 °C, 10 mM Tris pH 8, 100 mM KCl; molar mass distribution
ComEAGs wild-type [7] = biological target: T1, ComEAGs wild-type; assay: MW-AUC; 1.5 uM DNA, 5:1 and 10:1 protein:DNA; >90% DNA bound; ~3:1 complex, 3.9-4.0 S; MW-AUC: 10 mM Tris pH 8, 100 mM KCl, 20 C; EMSA: 10 mM Tris pH 8, 100 mM KCl, 2.5% glycerol, 0.5 mM EDTA, 1 mM MgCl2, room temperature 15 min, 8% native gel in; conditions: protein: recombinant; blunt
ComEAGs wild-type [8] = biological target: T1, ComEAGs wild-type; assay: MW-AUC; 1.5 uM DNA, 10:1 protein:DNA; >90% DNA bound; ~7:1 complex, 8.1 S; MW-AUC: 10 mM Tris pH 8, 100 mM KCl, 20 C; EMSA: 10 mM Tris pH 8, 100 mM KCl, 2.5% glycerol, 0.5 mM EDTA, 1 mM MgCl2, room temperature 15 min, 8% native gel in; conditions: protein: recombinant; blunt
[9] = biological target: the molecule itself; assay: crystal structure; ComEABs crystals, 22% PEG 500, 0.1 M succinate pH 5.5, 20 °C; 3.20 Å

stoichiometry N [1]: 2
Molecule: ComEAGs-OD (oligomerization domain of ComEAGs alone, codons 60-122) (domain or fragment)

Kd [2]: 10 to 160 µM
stoichiometry N [2]: 2
Kd [3]: 33.8 µM
Molecule: ComEAGs (ComEA from Geobacillus stearothermophilus, codons 60-207) (domain or fragment)

B1: EAGs30bp (dsDNA)
DNA 1: GCACTGTGAATATCACTACAGCAACCTTAG
DNA 2: CTAAGGTTGCTGTAGTGATATTCACAGTGC
binding result (ComEAGs wild-type [4]): binds

B2: ComEA from Geobacillus stearothermophilus, residues 60-207 (domain or fragment)
chain: T1 sequence
notes: ComEA, Geobacillus stearothermophilus (ATCC 7953), codons 60-207 (without the N-terminal transmembrane region); also called ComEAGs; wild-type ComEAGs; source: E. coli BL21(DE3), purified (His-60 Ni resin, Source 15Q, Hitrap Heparin, Superdex200); not shown: His-Sumo, N-terminal, cleaved
koff [5]: 5.27e-05 s⁻¹

B3: ComEAGs oligomerization domain alone, residues 60-122 (domain or fragment, Geobacillus stearothermophilus)
chain: ASKTAVVDVKGAVANPGVYEVAADARVRDAIALAGGLTDEADETKVNLAAKVHDEMMIYVPKK
notes: ComEA, Geobacillus stearothermophilus (ATCC 7953), codons 60-122 (oligomerization domain); also called ComEAGs-OD; ComEA-OD; source: E. coli BL21(DE3), purified by the same protocol as wild-type ComEAGs; not shown: His-Sumo, N-terminal, cleaved
stoichiometry N [6]: 4 and > 4

B4: EAGs14bp (dsDNA)
DNA 1: GTAGGACCATCTGC
DNA 2: GCAGATGGTCCTAC
binding result (ComEAGs wild-type [7]): binds

B5: EAGs40bp (dsDNA)
DNA 1: CGTTAGCACTGTGAATATCACTACAGCAACCTTAGAATCG
DNA 2: CGATTCTAAGGTTGCTGTAGTGATATTCACAGTGCTAACG
binding result (ComEAGs wild-type [8]): binds

B6: ComEABs (ComEA from Bacillus subtilis, codons 58-205) (domain or fragment, B. subtilis strain 168, UniProt P39694 58-205, looked up)
chain: SNETIVIDIKGAVQHPGVYEMRTGDRVSQAIEKAGGTSEQADEAQVNLAEILQDGTVVYIPKKGEETAVQQGGGGSVQSDGGKGALVNINTATLEELQGISGVGPSKAEAIIAYREENGRFQTIEDITKVSGIGEKSFEKIKSSITVK
notes: ComEA, Bacillus subtilis strain 168, codons 58-205 (lacks the N-terminal transmembrane region); source: E. coli BL21, purified (His-60 resin, Source 15Q, Superdex200); not shown: His6, C-terminal, kept
binding result [9]: binds
